The results in this text go back to the DeepSol protein solubility set.

This data set can be described thus: soluble on expression in E. coli; label from the status in PepcDB or PDB records.
For “MTLPIRNVAIIAHVDHGKTTLVDALLKQSGIFREGEDVPDCVMDSNALERERGITILSKNTAVRYKETLINIVDTPGHADFGGEVERVLGMVDGCLLIVDANEGPMPQTRFVLKKALEKGLRPIVVVNKIDRGQADPHVAVDKVLDLFLELGADEDQCDFPYLFASGMGGYAKENLEAESVDMQPLFDAILRHVPAPVGDPNKPLQLQVTTLDYSEYLGRIVIGRIHNGTIRAGQQAALVVEDGSIVKGKITKLMGFEGLKRVEMTEATAGYIVAVAGFADAYIGETITDPNEPQALPLIKVDEPTLQMTFWVNDSPFAGQEGKLVTSRQVRDRLFRELETNVALRVEETDSPDKFLVSGRGELHLGILIETMRREGFEFQVSQPQVIYRTVNGQPCEPYELLVLDVPADAVGSCIERLGQRKGEMQDMQPVAGDRTQLEFVIPARGLIGFRGEFMRMTRGEGIMNHSFLDYRQLSGDIEARNKGVLISFEEGISTFYAMKNAEDRGSFFITPGTKVYRGMIVGEHNRPQDLELNVCKTKQLTNHRASGGDELVQLQAPVDMSLERALEYIGPDELVEVTPQSIRLRKMAKKLAKR”, the “soluble on expression in E. coli” value is “not soluble”. For the sequence “MTLPTTIYSFPAYLSRFSSTDKPVKLKFHQYARATLLSNRGRDHNCDGRRTVEIHKLDLSDWQAFNKLATRCNAYDGITMNGDNSFGWNHEATLDNIHAQKYNKAYAGARLTAELKYLLQDVESFEPNSKYTIHEVVLGPGYGTPDYTGQTIGYVVTLPAQMPNCWSSELPTIDLYIDQLRTVTGVSNALGFIIAALLNAYSDLPHDLKIGLRSLSSSAAIYSGLGFERVPQERDISCARMYLTPANHPDLWTQENGEWIYLRN”, the “soluble on expression in E. coli” value is “not soluble”. Regarding “MTLRTKDGLTLYTRRWDVESPRAVICLVHGLGEHSGRYEHVARFFNENGISFAAFDLRGHGRSEGKRGHAEYQQLMDDITLFLQSLDYDCPKILYGHSMGGNLALNYILRYDPDIAGGIISAPFLALPKELPKHLFFILKLLNVVAPSIQLSNGIDPNLISRDREVVEAYVSDPLVHDKISPRFILQSLEAGKWALENADRLRKPILLIHGTADQITSYRASQEFAKRAGELCKFVSYEGFYHEPHNEPEKERVLADMLKWIEEVI”, the “soluble on expression in E. coli” value was “not soluble”. With “MTMYQTINEWVDYIDKGCSVLHLDFNVFKKELSLDIKVFEDEGEYTHKISFQNVASAYYSADVGDMRLEKIDPEEYNWQVFEMSYHPEGIGNLSNSIIPEYQSNANFLIDMNRMLIAIEAETVRFDDQSFYAYQLNTKLEHHHHHH”, the “soluble on expression in E. coli” value is recorded as “soluble”. On to “MTNKISSSDNLSNAVSATDDNASRTPNLNRRALVGGGVGLAARGALASGLQAATLPAGASQVPTTPAGRPMPYAIRPMPEDRRFGYAIVGLGKYALNQILPGFAGCQHSRIEALVSGNAEKAKIVAAEYGVDPRKIYDYSNFDKIAKDPKIDAVYIILPNSLHAEFAIRAFKAGKHVMCEKPMATSVADCQRMIDAAKAANKKLMIGYRCHYDPMNRAAVKLIRENQLGKLGMVTTDNSDVMDQNDPAQQWRLRRELAGGGSLMDIGIYGLNGTRYLLGEEPIEVRAYTYSDPNDERFVEVEDRIIWQMRFRSGALSHGASSYSTTTTSRFSVQGDKAVLLMDPATGYYQNLISVQTPGHANQSMMPQFIMPANNQFSAQLDHLAEAVINNKPVRSPGEEGMQDVRLIQAIYEAARTGRPVNTDWGYVRQGGY”, for which the “soluble on expression in E. coli” value was “soluble”.

Turning to “MTNKQVEISMAEWDVMNIIWDKKSVSANEIVVEIQKYKEVSDKTIRTLITRLYKKEIIKRYKSENIYFYSSNIKEDDIKMKTAKTFLNKLYGGDMKSLVLNFAKNEELNNKEIEELRDILNDISKK”, the “soluble on expression in E. coli” value was “soluble”. For the sequence “MTNLVDKAAHSFATQNVVFQTLATASGKLVGVVTLNVEKALNALDLDMVRAMTVQLNLWKKDPLIACVVLDGSGEKAFCAGGDVRALYHASVAAKGQVTEVAKVFFEEEYRLDYLLHTYGKPVLVWGDGIVMGGGLGLMAGASHKVVTETSRIAMPEVTIGLYPDVGGSYFLNRMPGKMGLFLGLTAYHMNAADACYVGLADHYLNRDDKELMFDAMATLDWSDSPALNHQRLDTMINELSNQVDIPKGDSVLAESQEMIDRLMAGSLTDIVTRMSTLSTDEAWLSKACATMLAGSPISWHLAYIQTQLGTKLSLAQCFKWELTVSVNVCAKGDFCEGVRALLIDKDKQPKWQFADVQSVPNSVIEDILTSPWGEEHPLSQLS”, the “soluble on expression in E. coli” value is reported as “soluble”. For the sequence “MTNNPLIPQSKLPQLGTTIFTQMSALAQQHQAINLSQGFPDFDGPRYLQERLAHHVAQGANQYAPMTGVQALREAIAQKTERLYGYQPDADSDITVTAGATEALYAAITALVRNGDEVICFDPSYDSYAPAIALSGGIVKRMALQPPHFRVDWQEFAALLSERTRLVILNTPHNPSATVWQQADFAALWQAIAGHEIFVISDEVYEHINFSQQGHASVLAHPQLRERAVAVSSFGKTYHMTGWKVGYCVAPAPISAEIRKVHQYLTFSVNTPAQLALADMLRAEPEHYLALPDFYRQKRDILVNALNESRLEILPCEGTYFLLVDYSAVSTLDDVEFCQWLTQEHGVAAIPLSVFCADPFPHKLIRLCFAKKESTLLAAAERLRQL”, the “soluble on expression in E. coli” value was “soluble”. Turning to “MTNNQKLVGRHKRLAFMKVGTEGTYDRITGFTSLIEGKEAKEYARQYIDEATERTDVVGYATGIEYAFDRYTNNAVHEKIANITDDELLGVDAQVEIVSVDVFEEKAGGKYPARKRTYSVVPDTTGDGTDALIYSGNFKAVSEIVKGYCTTTDKWQTCTFVEGEIPAEALEHHHHHH”, the “soluble on expression in E. coli” value is given as “soluble”. Consider “MTNPLYTGHPFGTTVTEETLRAIFLPLTQWEDKYRQLILLGKQLPALPDECKAQAKEIAGCENRVWLGFTRSDNGTMHFFGDSEGRIVRGLLAVLLTAVEGKNAAELQARSPLALFDELGLRAQLSASRSQGLNALSEAIVAATHKG”, for which the “soluble on expression in E. coli” value is on record as “not soluble”. On to “MTNQLPKISEAELEIMKVLWLKSPQTANEIIEELEDPMDWKPKTIRTLINRLVQKEAVSYHQDKGRMYAYYPLVSQDNYLQVETKSLLKRFCGAAFKPLLVNFLKEEKLSSEDINELKRLLDEKTEENKRKD”, for which the “soluble on expression in E. coli” value was “not soluble”. The result for “MTNVFHHVRNFIEQQPAPAKTLEKSSSPNILYTALPKHWRSNKSFQEPFYVVLLTPVPDNTEVSIWAGNDEKPCEEVRNEKAKVHRQVAKFNDLRFVGRSGRGRKFHLTIVIHSAPMMVATVKNVIKVTVDGPRDARIPKPQGSLKRQAEQQTIFPNDIIRTPGPPMPMTMIPPPWFPLPMTQTFPPSFFPLISPGPHPSISAALWKIHSESMKTPIKQKVEQENVSLNTSTCLSSPSIFITPTSDDRKLKRPSSPRSITKSSETSINLIQETPESVESKRRRNVSITSSNSSSPTIWRPF” reads “not soluble”. Regarding “MTPQELNAECHACDKTPPAANTYKGWSGFVGLAAQLNQAWRVGYDITSGYRVPNASEVYFTYNHGSGNWLPNPNLKAERSTTHTLSLQGRSEKGMLDANLYQSNYRNFLSEEQKLTTSGTPGCTEENAYYGICSDPYKEKLDWQMKNIDKARIRGIELTGRLNVDKVASFVPEGWKLFGSLGYAKSKLSGDNSLLSTQPLKVIAGIDYESPSEKWGVFSRLTYLGAKKVKDAQYTVYENKGWGTPLQKKVKDYPWLNKSAYVFDMYGFYKPAKNLTLRAGVYNLFNRKYTTWDSLRGLYSYSTTNAVDRDGKGLDRYRAPGRNYAVSLEWKF”, the “soluble on expression in E. coli” value is “not soluble”. As for “MTQANLSETLFKPRFKHTETSTLVRRFNRGSQPPMQSALDGKNVPHWYRMINRLMWIWRGVDPREILDVQARIVMSDAERTDDDLYDTVIGYRGGNWIYEWAKQAMDWQQKACQEQDAMRSGRYWLHASTLYNIAAYPHLKGDELAEQAQALANRAYEEAAQRLPGSLREMEFAVPGGSPVTAFLHMPKGDGPFPTVLMCGGLDAMQTDYYTLYERYFAPRGIAMLTLDMPSVGFSSKWKLTQDSSLLHQHVLKALPNVPWVDHTRVAAFGFRFGANVAVRLAYLEAPRLKAVACLGPVVHALLSDPQRQSTVPEMYLDVLASRLGMHDASDEALRVELNRYSLKVQGLLGRRCPTPMLSGFWKNDPFSPEEESRLITTSSSDGKLIEIPFNPVYRNFDRALQEITDWINHRLC”, the “soluble on expression in E. coli” value is recorded as “not soluble”. As for “MTQNHSASLLVELLTEELPPKALARLSDAFAEGIAQRLAARDLIEGELAFERYATPRRLAVVVQNVRAVAPERQVREKVLPVSVALDAQGKPTAPLAKKLAALGHPNLSIADLERAHDGKAEAFFVNYASPGATLAEGLQAALDETLAKLPIPKVMTYQRPDGTDVQFVRPVHRLSALHDDRIVPVCAFGIDAGDTTLGHRFLSDGLVAIQHANAYADTLRDKGRVLAHFAGRKEAIRAQLEANAGGDQVVMPEALLDEVTSLVEWPVVYPCRFEDEFLQVPQECLILTMQTNQKYFALTDAAGKLRSRFLIVSNIETKTPDEIVEGNERVVRPRLADAKFFFEQDKKKPLADRVPLLANVVYHNKLGSQLARIERLETLAGEIAPAIGADATVAIRAARLAKADLLTDMVGEFPELQGTMGTYYARHDGEAEDVAIACSEHYQPRFSGDALPTTPVSTAVALADKLETIVGIWGIGLAPTGEKDPFALRRHALGVLRLLLEKQLPLDLVWLLRTTYERFAAVPDVAESTDAIHAFFVERLRGLLRERGYTAGEVDAVLSLNPTR”, the “soluble on expression in E. coli” value is reported as “not soluble”.

Turning to “MTQTAAPARYSPAELACALGLFPPTAEQAAVIAAPPGPLVVIAGAGAGKTETMAARVVWLVANGYAEPGQVLGLTFTRKAAGQLLRRVRSRLARLAGIGLGCGDPAACAPVVSTYHAFAGSLLRDYGLLLPLEPDTRLLSETELWQLAFDVVSGYDGVLCTDKSPAAVTSIVVRLWGQLGEHLVDTRALRDTHVELERLVHALPAGRYQRDRGPSQWLLRMLATQTQRAELVPLLDALGERMHAGKVMDFAMQMASAARLAATSPQVGQDLRRRYRVVLLDEYQDTGHAQRVVLSSLFGGGVDDGLALTAVGDPIQSIYGWRGASATNLPRFTTDFPLSDGTPAPVLELLTSWRNPPQALRVANGISAEARRRSVAVRALRPRPDAPPGAVRCALLPDVQAEREWIADHLRMRYQRAEADGVKPPTAAVLVRRNADAAAIADTLRARGIPAEVVGLAGLLSIPEVAEVVAMLRLVADPTAGAAAMRVLTGPRWRLGARDLAALWRRALTLSGESPSTASPESIAMAASADADNPCLADAISDPGSAEGYSVAGYGRIGALAGELSALRGRLGHSLPDLVAEVRRVLGVDCEVRASAPVSGGWAGPEHLDAFADVVAGYAERASARSSEASVAGLLAYLDVAEVVENGLPPAELTVACDRVQVLTVHAAKGLEWQVVAVAHLSRGVFPSTVSRSSWLTDPAELPPLLRGDRASAGAHGIPVLDTSAVADRKQLSDKISEHRRLLDRRRVDEERRLLYVAVTRAEDTLLVSGHHWGPTGTKPRGPSEFLCELKDIIDRSAAAGDPCGVVEQWASAPAGDERNPLCDNAIEAVWPADPLAARRGDVERGAALVAAAMSADLPGSTTDIDHPPRPGDAPWSTDVDALLAERAHAARGAPARGLPNHLSVSSLVELVGDPVGARQRLMCRLPKRPDPHAWLGDAFHAWVQQFYGAELLFDLGDLPGAADREVGDPEELAALQRAFTASSWAARTPAAVEVPFEMPIGDTVVRGRIDAVFVDPDGGATVVDWKTGKPPHGPAAMRQAAVQLAVYRLAWAALRGCPTSSVRTAFYYVRSGITVVPDELPAPGELAMLLTDCAGRRSDT”, the “soluble on expression in E. coli” value is reported as “not soluble”. Consider “MTRDDDDDEDDEEEEDSGAWGRESYAFDGFHPTEEFGFSFSPRGGMRFHGNFGFDDLVRDFNSIFSEMGAWTLPSHSPELPGPESETPGVRLREGQTLRDSMLKYPDSHQPRIFEGVLESHAKPESSKPAPDWGSQGPFHRLDDTWPVSPHSRAREDKDLDSQVSQEGLGPLLQPQPKSYFKSISVTKITKPDGTVEEHRTVVDGEGRRETTVTHQEAHDSSRSDPDPPRSSALDDPFSILDLLLGRWFRSR”, for which the “soluble on expression in E. coli” value is recorded as “not soluble”.
